Our source for the EC50 of peptide triggered cyclic AMP (cAMP) accumulation values is US20120100070A1.

The target of the test is GLP-1R-GFP stably expressed on HEK293 cells.

“GLP-1 (L-GLP-1, [Ala8]GLP-1-Ahx-Cys) (peptide)”: the EC50 of peptide triggered cyclic AMP (cAMP) accumulation was 5 nM.
